Results from patent US20220363757A1.

How the values were obtained:
Assay in all cases: SPR, Fab over captured mutant LAG-3-Fc
[1] = biological target: human LAG-3 domain 1-2 Fc fusion, point mutation #14 T62A (human) (UniProt P18627)
[2] = biological target: human LAG-3 domain 1-2 Fc fusion, point mutation #15 Q64A (human) (UniProt P18627)
[3] = biological target: human LAG-3 domain 1-2 Fc fusion, point mutation #8 Q51A (human) (UniProt P18627)
[4] = biological target: human LAG-3 domain 1-2 Fc fusion, point mutation #55 S111A (human) (UniProt P18627)
[5] = biological target: human LAG-3 domain 1-2 Fc fusion, chimeric construct #5 (mutated region AA 46-51) (human) (UniProt P18627)
[6] = biological target: human LAG-3 domain 1-2 Fc fusion, chimeric construct #11 (mutated region AA 74-82) (human) (UniProt P18627)
[7] = biological target: human LAG-3 domain 1-2 Fc fusion, point mutation #67 R127A (human) (UniProt P18627)
[8] = biological target: human LAG-3 domain 1-2 Fc fusion, point mutation #41 P94A (human) (UniProt P18627)
[9] = biological target: human LAG-3 domain 1-2 Fc fusion, chimeric construct #16 (mutated region AA 98-105) (human) (UniProt P18627)
[10] = biological target: human LAG-3 domain 1-2 Fc fusion, point mutation #58 P115A (human) (UniProt P18627)
[11] = biological target: human LAG-3 domain 1-2 Fc fusion, point mutation #26 P79A (human) (UniProt P18627)
[12] = biological target: human LAG-3 domain 1-2 Fc fusion, point mutation #62 Q121A (human) (UniProt P18627)
[13] = biological target: human LAG-3 domain 1-2 Fc fusion, chimeric construct #26 (mutated region AA 157-161) (human) (UniProt P18627)
[14] = biological target: human LAG-3 domain 1-2 Fc fusion, chimeric construct #27 (mutated region AA 161-166) (human) (UniProt P18627)
[15] = biological target: human LAG-3 domain 1-2 Fc fusion, point mutation #4 S45A (human) (UniProt P18627)
[16] = biological target: human LAG-3 domain 1-2 Fc fusion, point mutation #60 P118A (human) (UniProt P18627)
[17] = biological target: human LAG-3 domain 1-2 Fc fusion, point mutation #13 R58A (human) (UniProt P18627)
[18] = biological target: human LAG-3 domain 1-2 Fc fusion, chimeric construct #10 (mutated region AA 70-77) (human) (UniProt P18627)
[19] = biological target: human LAG-3 domain 1-2 Fc fusion, point mutation #79 S159A (human) (UniProt P18627)
[20] = biological target: human LAG-3 domain 1-2 Fc fusion, chimeric construct #22 (mutated region AA 140-142) (human) (UniProt P18627)
[21] = biological target: human LAG-3 domain 1-2 Fc fusion, chimeric construct #24 (mutated region AA 148-154) (human) (UniProt P18627)
[22] = biological target: human LAG-3 domain 1-2 Fc fusion, chimeric construct #23 (mutated region AA 148-152) (human) (UniProt P18627)
[23] = biological target: human LAG-3 domain 1-2 Fc fusion, point mutation #44 R97A (human) (UniProt P18627)
[24] = biological target: human LAG-3 domain 1-2 Fc fusion, point mutation #63 D123A (human) (UniProt P18627)
[25] = biological target: human LAG-3 domain 1-2 Fc fusion, point mutation #28 A81S (human) (UniProt P18627)
[26] = biological target: human LAG-3 domain 1-2 Fc fusion, point mutation #19 D68A (human) (UniProt P18627)
[27] = biological target: human LAG-3 domain 1-2 Fc fusion, point mutation #71 D131A (human) (UniProt P18627)
[28] = biological target: human LAG-3 domain 1-2 Fc fusion, point mutation #12 R57A (human) (UniProt P18627)
[29] = biological target: human LAG-3 domain 1-2 Fc fusion, point mutation #16 H65A (human) (UniProt P18627)
[30] = biological target: human LAG-3 domain 1-2 Fc fusion, point mutation #76 D143A (human) (UniProt P18627)
[31] = biological target: human LAG-3 domain 1-2 Fc fusion, point mutation #51 G107A (human) (UniProt P18627)
[32] = biological target: human LAG-3 domain 1-2 Fc fusion, point mutation #18 P67A (human) (UniProt P18627)
[33] = biological target: human LAG-3 domain 1-2 Fc fusion, point mutation #31 P84A (human) (UniProt P18627)

human LAG-3 domain 1-2 Fc fusion, point mutation #71 D131A (human), sequence (P18627 23-266 D131A): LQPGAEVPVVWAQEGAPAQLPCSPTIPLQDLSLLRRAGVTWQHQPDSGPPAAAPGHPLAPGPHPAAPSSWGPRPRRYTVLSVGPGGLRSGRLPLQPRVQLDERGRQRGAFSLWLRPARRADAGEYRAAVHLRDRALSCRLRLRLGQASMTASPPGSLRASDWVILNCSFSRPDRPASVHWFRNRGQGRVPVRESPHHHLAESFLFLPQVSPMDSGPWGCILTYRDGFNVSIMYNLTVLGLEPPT
human LAG-3 domain 1-2 Fc fusion, point mutation #18 P67A (human), sequence (P18627 23-266 P67A): as the sequence (P18627 23-266 D131A) above, with P45A, A109D counted along it
human LAG-3 domain 1-2 Fc fusion, point mutation #8 Q51A (human), sequence (P18627 23-266 Q51A): as the sequence (P18627 23-266 D131A) above, with Q29A, A109D counted along it
human LAG-3 domain 1-2 Fc fusion, chimeric construct #22 (mutated region AA 140-142) (human), sequence (P18627 other isoform, or with tags, fused parts or gaps mutant): as the sequence (P18627 23-266 D131A) above, with A109D, R118T, A120K counted along it
human LAG-3 domain 1-2 Fc fusion, point mutation #51 G107A (human), sequence (P18627 23-266 G107A): as the sequence (P18627 23-266 D131A) above, with G85A, A109D counted along it
human LAG-3 domain 1-2 Fc fusion, point mutation #19 D68A (human), sequence (P18627 23-266 D68A): as the sequence (P18627 23-266 D131A) above, with D46A, A109D counted along it
human LAG-3 domain 1-2 Fc fusion, chimeric construct #24 (mutated region AA 148-154) (human), sequence (P18627 other isoform, or with tags, fused parts or gaps mutant): as the sequence (P18627 23-266 D131A) above, with A109D, R126H, A128F, H130R, R132P counted along it
human LAG-3 domain 1-2 Fc fusion, point mutation #14 T62A (human), sequence (P18627 23-266 T62A): as the sequence (P18627 23-266 D131A) above, with T40A, A109D counted along it
human LAG-3 domain 1-2 Fc fusion, point mutation #12 R57A (human), sequence (P18627 23-266 R57A): as the sequence (P18627 23-266 D131A) above, with R35A, A109D counted along it
human LAG-3 domain 1-2 Fc fusion, point mutation #4 S45A (human), sequence (P18627 23-266 S45A): as the sequence (P18627 23-266 D131A) above, with S23A, A109D counted along it
human LAG-3 domain 1-2 Fc fusion, point mutation #63 D123A (human), sequence (P18627 23-266 D123A): as the sequence (P18627 23-266 D131A) above, with D101A, A109D counted along it
human LAG-3 domain 1-2 Fc fusion, point mutation #26 P79A (human), sequence (P18627 23-266 P79A): as the sequence (P18627 23-266 D131A) above, with P57A, A109D counted along it
human LAG-3 domain 1-2 Fc fusion, point mutation #79 S159A (human), sequence (P18627 23-266 S159A): as the sequence (P18627 23-266 D131A) above, with A109D, S137A counted along it
human LAG-3 domain 1-2 Fc fusion, point mutation #28 A81S (human), sequence (P18627 23-266 A81S): as the sequence (P18627 23-266 D131A) above, with A59S, A109D counted along it
human LAG-3 domain 1-2 Fc fusion, chimeric construct #27 (mutated region AA 161-166) (human), sequence (P18627 other isoform, or with tags, fused parts or gaps mutant): as the sequence (P18627 23-266 D131A) above, with A109D, R139S, L144V counted along it
human LAG-3 domain 1-2 Fc fusion, point mutation #13 R58A (human), sequence (P18627 23-266 R58A): as the sequence (P18627 23-266 D131A) above, with R36A, A109D counted along it
human LAG-3 domain 1-2 Fc fusion, point mutation #60 P118A (human), sequence (P18627 23-266 P118A): as the sequence (P18627 23-266 D131A) above, with P96A, A109D counted along it
human LAG-3 domain 1-2 Fc fusion, point mutation #15 Q64A (human), sequence (P18627 23-266 Q64A): as the sequence (P18627 23-266 D131A) above, with Q42A, A109D counted along it
human LAG-3 domain 1-2 Fc fusion, chimeric construct #5 (mutated region AA 46-51) (human), sequence (P18627 other isoform, or with tags, fused parts or gaps mutant): as the sequence (P18627 23-266 D131A) above, with P24L, T25E, I26F, L28H, Q29L, A109D counted along it

Fab fragment of 25F7-Lag3.5 analogue
KD mutant/KD wild type [1]: 1.3 fold
KD mutant/KD wild type [2]: 1.3 fold
KD mutant/KD wild type [3]: 0.8 fold
KD mutant/KD wild type [4]: 0.9 fold
KD mutant/KD wild type [5]: 1.3 fold
KD mutant/KD wild type [6]: 1.1 fold
KD mutant/KD wild type [7]: 0.7 fold
KD mutant/KD wild type [8]: 0.8 fold
KD mutant/KD wild type [9]: 1.7 fold
KD mutant/KD wild type [10]: 1 fold
KD mutant/KD wild type [11]: 0.8 fold
KD mutant/KD wild type [12]: 0.9 fold
KD mutant/KD wild type [13]: 0.9 fold
KD mutant/KD wild type [14]: 0.8 fold
KD mutant/KD wild type [15]: 1 fold
KD mutant/KD wild type [16]: 0.8 fold
KD mutant/KD wild type [17]: 0.8 fold
KD mutant/KD wild type [18]: 1 fold
KD mutant/KD wild type [19]: 0.8 fold
KD mutant/KD wild type [20]: 1.2 fold
KD mutant/KD wild type [21]: 0.7 fold
KD mutant/KD wild type [22]: 0.8 fold
KD mutant/KD wild type [23]: 0.9 fold
KD mutant/KD wild type [24]: 1 fold
KD mutant/KD wild type [25]: 0.7 fold
KD mutant/KD wild type [26]: 0.9 fold
KD mutant/KD wild type [27]: 1.2 fold
KD mutant/KD wild type [28]: 0.7 fold
KD mutant/KD wild type [29]: 1.2 fold
KD mutant/KD wild type [30]: 1 fold
KD mutant/KD wild type [31]: 0.8 fold
KD mutant/KD wild type [32]: 1.1 fold
KD mutant/KD wild type [33]: 0.6 fold
